Laboratory results: PMC8758671

Key:
[1] = molecular target: porcine trypsin (porcine) (UniProt P00761)
[2] = molecular target: porcine trypsin (porcine) (UniProt P00761); test: enzyme inhibition kinetics (double-reciprocal, Lineweaver-Burk plot); 0, 66.66 and 133.33 ηmol L^−1 rTcTI against 10 µg porcine trypsin, 15 min at 37 °C, then substrate BApNA at 0.04–0.42 (printed ηmol L^−1) in 240 µL; absorbance at 410 nm; quadruplicate; competitive inhibition

UniProt P00761, sequence (P00761 9-231): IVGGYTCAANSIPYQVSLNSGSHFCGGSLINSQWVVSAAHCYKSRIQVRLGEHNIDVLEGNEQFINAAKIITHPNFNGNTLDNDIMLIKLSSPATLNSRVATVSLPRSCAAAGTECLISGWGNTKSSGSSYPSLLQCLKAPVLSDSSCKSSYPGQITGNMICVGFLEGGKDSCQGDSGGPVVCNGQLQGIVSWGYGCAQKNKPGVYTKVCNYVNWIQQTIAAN

residual trypsin activity (hydrolysis of BApNA, absorbance at 410 nm) with rTcTI rising from 0.5 to 1.2 μmol L^−1; 70% at the lower concentration [1]: 12%
Ki [2]: 408 nM
Substance: recombinant Theobroma cacao trypsin inhibitor (rTcTI) (natural protein)
